Assays:
PACAP38 [1] = target: T1, PACAP38 (human, not fully specified); experiment: SPR (Biacore), 37 C, antibody captured via anti-human Fc, peptide analyte
T1 construct: The background says natural PACAP is alpha-amidated
T1 peptide: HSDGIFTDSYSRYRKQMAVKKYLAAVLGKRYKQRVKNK
Experimental: (§1) In brief, antibody and peptide interaction was determined on a Biacore S200 (GE Healthcare) by method previously described (Andreu and Gomes 2002). An anti-Human IgG Fc capture antibody was immobilized on a CM5 biosensor chip via standard amine coupling. Anti-PACAP antibodies were injected and captured to 200 to 400 response units (RU),). PACAP38, PACAP27 and VIP were diluted in HBS-EP+ buffer containing 0.1% w/v BSA (Bovostar, catalog number BSAS1.0) and 0.15 M NaCl (Sigma-Aldrich catalog number S7653), pH 7.4. Binding kinetics of antibodies were determined by injection of two-fold serial dilutions of PACAPs (12 nm to 0 nM) and VIP (1200 nM to 0 nM) in running buffer at 37° C. with a flow rate of 40 μL/min for 2 min followed by a dissociation for 10 minutes. For subsequent cycles, the chip was regenerated using 0.85% phosphoric acid. Data was analysed with the Biacore S200 Evaluation Software (ver 1.0). Association rate (kₐ) and dissociation rate (kd) constants were determined using a simple one-to-one Langmuir binding model and used to calculate the equilibrium dissociation constant (KD).

PACAP38 [2] = target: T1, PACAP38; experiment: cell-based or functional assay
PACAP38 [3] = target: T1, PACAP38; experiment: cell-based or functional assay
PACAP38 [4] = target: T1, PACAP38; experiment: SPR (Biacore S200) off-rate ranking, antibody captured from supernatant, single injection of 33.3 nM PACAP38
Experimental: as §1, with “Binding kinetics of antibodies were determined by injection of two-fold serial dilutions of PACAPs (12 nm to 0 nM) and VIP (1200 nM to 0 nM) in running buffer at 37° C. with a flow rate of 40 μL/min for 2 min followed by a dissociation for 10 minutes.” left out

VIP = target: T2, VIP (human); experiment: SPR (Biacore S200), 37 C, captured antibody, steady state affinity
T2 construct: also called vasoactive intestinal peptide
T2 peptide: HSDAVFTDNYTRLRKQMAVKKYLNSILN
Experimental: as §1
(§2) Due to very fast on-rate and off-rate with VIP, binding affinity at steady state was used.

PACAP27 = target: T3, PACAP27 (human, not fully specified); experiment: SPR (Biacore S200), 37 C, captured antibody, peptide dilution series, 1:1 Langmuir fit
T3 peptide: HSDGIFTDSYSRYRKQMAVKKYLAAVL
Experimental: as §1, §2

PACAP38 [5] = target: T1, PACAP38; experiment: as above
Experimental: as §1, §2

Row | Binder | Kd (PACAP38 [1]) [nM] | koff (PACAP38 [1]) [s⁻¹] | kon (PACAP38 [1]) [M⁻¹ s⁻¹] | PACAP-38 IC50 (PACAP38 [2]) [nM] | IC50 (nM), PACAP-induced cAMP accumulation, CHO-K1 cells, cAMP-Glo (PACAP38 [3]) [nM] | Kd (PACAP38 [4]) [nM] | koff (PACAP38 [4]) [s⁻¹] | kon (PACAP38 [4]) [M⁻¹ s⁻¹] | Kd (VIP) [nM] | Kd (PACAP27) [nM] | koff (PACAP27) [s⁻¹] | kon (PACAP27) [M⁻¹ s⁻¹] | Kd (PACAP38 [5]) [nM] | koff (PACAP38 [5]) [s⁻¹] | kon (PACAP38 [5]) [M⁻¹ s⁻¹]
1 | 917B (antibody, V domains shown, Humanized anti-PACAP variant) VH: EVQLVQSGAEVKKPGSSVKVSCKASGGTFSDSYMHWVRQAPGQGLEWMGLIYPIFADTRYAQKFQGRVTITADESTSTAYMELSSLRSEDTAVYYCAIDQDGSFAYWGQGTLVTVSS VL: DIVMTQSPDSLAVSLGERATINCKSSQSLLDSDGKTYLNWLQQKPGQPPKRLIYLVSTRESGVPDRFSGSGSGTDFTLTISSLQAEDVAVYYCWQGTWFDLTFGGGTKVEIK | 0.00969 | 0.000122 | 1.26e+07 | 0.19 | 0.19 | – | – | – | – | – | – | – | – | – | –
2 | 519C (antibody, V domains shown, LC S(27E), G29, L50, V51, K53T, L54R, D55E, H93W, P95D) VH: EVQLVQSGAEVKKPGSSVKVSCKASGGTFSDLYMHWVRQAPGQGLEWMGLIYPIFADTRYAQKFQGRVTITADESTSTAYMELSSLRSEDTAVYYCAIDQDGSFAYWGQGTLVTVSS VL: DIVMTQSPDSLAVSLGERATINCKSSQSLLDSDGKTYLNWLQQKPGQPPKRLIYLVSTRESGVPDRFSGSGSGTDFTLTISSLQAEDVAVYYCWQGTWFDLTFGGGTKVEIK | 0.0218 | 0.000483 | 2.22e+07 | 0.27 | – | – | – | – | – | – | – | – | – | – | –
3 | 524C (antibody, V domains shown, LC S(27E), G29, L50, V51, K53T, L54R, D55E, H93W, P95D) VH: EVQLVQSGAEVKKPGSSVKVSCKASGGTFSDSYMHWVRQAPGQGLEWMGLIYPIFADQRYAQKFQGRVTITADESTSTAYMELSSLRSEDTAVYYCAIDQDASFAYWGQGTLVTVSS VL: DIVMTQSPDSLAVSLGERATINCKSSQSLLDSDGKTYLNWLQQKPGQPPKRLIYLVSTRESGVPDRFSGSGSGTDFTLTISSLQAEDVAVYYCWQGTWFDLTFGGGTKVEIK | 0.035 | 0.000546 | 1.56e+07 | 0.36 | – | – | – | – | – | – | – | – | – | – | –
4 | 604C (antibody, V domains shown) VH: EVQLVQSGAEVKKPGSSVKVSCKASGGTFSDSYMHWVRQAPGQGLEWMGLIYPIFADTRYAQKFQGRVTITADESTSTAYMELSSLRSEDTAVYYCAIDQDGSFAYWGQGTLVTVSS VL: DIVMTQSPDSLAVSLGERATINCKSSQSLLDSDGKTYLNWLQQKPGQPPKRLIYWASTRESGVPDRFSGSGSGTDFTLTISSLQAEDVAVYYCWQGTWFDLTFGGGTKVEIK | 0.0197 | 0.000319 | 1.62e+07 | 0.16 | – | 0.0197 | 0.000319 | 1.62e+07 | – | – | – | – | – | – | –
5 | 605C (antibody, V domains shown) VH: EVQLVQSGAEVKKPGSSVKVSCKASGGTFSDSYMHWVRQAPGQGLEWMGLIYPIFADTRYAQKFQGRVTITADESTSTAYMELSSLRSEDTAVYYCAIDQDGSFAYWGQGTLVTVSS VL: DIVMTQSPDSLAVSLGERATINCKSSQSLLDADGKTYLNWLQQKPGQPPKRLIYWASTRESGVPDRFSGSGSGTDFTLTISSLQAEDVAVYYCWQGTWFDLTFGGGTKVEIK | 0.017 | 0.000566 | 3.33e+07 | 0.15 | – | 0.017 | 0.000566 | 3.33e+07 | 225 | 0.154 | 0.00101 | 6.58e+06 | 0.0328 | 0.000565 | 1.72e+07
6 | 919A (antibody, V domains shown, Humanized anti-PACAP variant) VH: EVQLVQSGAEVKKPGSSVKVSCKASGGTFSDSYMHWVRQAPGQGLEWMGLIYPIFADTRYAQKFQGRVTITADESTSTAYMELSSLRSEDTAVYYCAIDYDGSFAYWGQGTLVTVSS VL: DIVMTQSPDSLAVSLGERATINCKSSQSLLDSDGKTYLNWLQQKPGQPPKRLIYLVSTRESGVPDRFSGSGSGTDFTLTISSLQAEDVAVYYCWQGTHFPLTFGGGTKVEIK | 0.0866 | 0.00584 | 6.75e+07 | 1.3 | – | – | – | – | – | – | – | – | – | – | –
7 | 608C (antibody, V domains shown) VH: EVQLVQSGAEVKKPGSSVKVSCKASGGTFSDLYMHWVRQAPGQGLEWMGLIYPIFADTRYAQKFQGRVTITADESTSTAYMELSSLRSEDTAVYYCAIDQDGSFAYWGQGTLVTVSS VL: DIVMTQSPDSLAVSLGERATINCKSSQSLLDSDGKTYLNWLQQKPGQPPKRLIYWASTRESGVPDRFSGSGSGTDFTLTISSLQAEDVAVYYCWQGTWFDLTFGGGTKVEIKR | 0.0284 | 0.00204 | 7.19e+07 | 0.7 | 0.7 | 0.0284 | 0.00204 | 7.19e+07 | – | – | – | – | – | – | –
8 | 609C (antibody, V domains shown) VH: EVQLVQSGAEVKKPGSSVKVSCKASGGTFSDLYMHWVRQAPGQGLEWMGLIYPIFADTRYAQKFQGRVTITADESTSTAYMELSSLRSEDTAVYYCAIDQDGSFAYWGQGTLVTVSS VL: DIVMTQSPDSLAVSLGERATINCKSSQSLLDADGKTYLNWLQQKPGQPPKRLIYWASTRESGVPDRFSGSGSGTDFTLTISSLQAEDVAVYYCWQGTWFDLTFGGGTKVEIKR | 0.0228 | 0.00118 | 5.17e+07 | 0.83 | 0.83 | 0.0228 | 0.00118 | 5.17e+07 | – | – | – | – | – | – | –
9 | 627C (antibody, V domains shown) VH: EVQLVQSGAEVKKPGSSVKVSCKASGGTFSDVYMHWVRQAPGQGLEWMGLIYPIFADTRYAQKFQGRVTITADESTSTAYMELSSLRSEDTAVYYCAIDQDGSFAYWGQGTLVTVSS VL: DIVMTQSPDSLAVSLGERATINCKSSQSLLDSDGKTYLNWLQQKPGQPPKRLIYWASTRESGVPDRFSGSGSGTDFTLTISSLQAEDVAVYYCWQGTWFDLTFGGGTKVEIKR | 0.0376 | 0.000789 | 2.1e+07 | 0.4 | 0.4 | 0.0376 | 0.000789 | 2.1e+07 | – | – | – | – | – | – | –

Reference: patent US20260226154A1 (CEPHALON, published 2026)
